Tests used:
[1] = molecular target: T1, microfibril associated protein 3, transcript variant 3 (human, UniProt P55082 19-362)
T1 construct: HuProt array protein, full-length recombinant from yeast; also called MFAP3

[2] = molecular target: T2, glucuronidase, beta pseudogene (human)
T2 construct: HuProt array protein; labelled _frag; pseudogene product; also called BC025996.2_frag
T2 chain: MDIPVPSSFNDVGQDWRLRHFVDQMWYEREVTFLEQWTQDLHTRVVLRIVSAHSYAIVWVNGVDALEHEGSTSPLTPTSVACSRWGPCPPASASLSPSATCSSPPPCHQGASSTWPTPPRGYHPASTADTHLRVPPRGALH

[3] = molecular target: T3, dual specificity phosphatase 12 (human, UniProt Q9UNI6 1-340)
T3 construct: HuProt array protein, full-length recombinant from yeast; also called DUSP12

[4] = molecular target: T4, actinin alpha 1, transcript variant 2 (human, UniProt P12814 1-892)
T4 construct: HuProt array protein, full-length recombinant from yeast; also called ACTN1

[5] = molecular target: T5, zinc finger with KRAB and SCAN domains 4, transcript variant X1 (human, UniProt Q969J2 1-545)
T5 construct: HuProt array protein, full-length recombinant from yeast; also called ZKSCAN4
T5 sequence: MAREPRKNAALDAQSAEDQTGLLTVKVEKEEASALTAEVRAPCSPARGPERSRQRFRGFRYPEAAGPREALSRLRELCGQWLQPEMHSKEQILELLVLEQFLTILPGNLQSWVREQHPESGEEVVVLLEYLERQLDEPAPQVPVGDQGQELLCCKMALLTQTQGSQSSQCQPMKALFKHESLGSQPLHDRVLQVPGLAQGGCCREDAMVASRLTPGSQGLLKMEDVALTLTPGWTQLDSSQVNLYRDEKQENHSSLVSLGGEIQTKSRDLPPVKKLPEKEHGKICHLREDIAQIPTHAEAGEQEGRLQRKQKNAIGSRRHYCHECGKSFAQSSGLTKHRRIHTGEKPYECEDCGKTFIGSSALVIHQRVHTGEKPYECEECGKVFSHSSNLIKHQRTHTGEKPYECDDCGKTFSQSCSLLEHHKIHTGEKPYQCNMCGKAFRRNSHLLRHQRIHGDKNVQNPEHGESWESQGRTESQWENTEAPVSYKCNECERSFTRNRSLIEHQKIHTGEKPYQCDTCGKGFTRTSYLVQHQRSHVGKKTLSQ

[6] = molecular target: T6, membrane palmitoylated protein 2, transcript variant 3 (human, UniProt Q14168 1-576)
T6 construct: HuProt array protein, full-length recombinant from yeast; also called MPP2
T6 sequence: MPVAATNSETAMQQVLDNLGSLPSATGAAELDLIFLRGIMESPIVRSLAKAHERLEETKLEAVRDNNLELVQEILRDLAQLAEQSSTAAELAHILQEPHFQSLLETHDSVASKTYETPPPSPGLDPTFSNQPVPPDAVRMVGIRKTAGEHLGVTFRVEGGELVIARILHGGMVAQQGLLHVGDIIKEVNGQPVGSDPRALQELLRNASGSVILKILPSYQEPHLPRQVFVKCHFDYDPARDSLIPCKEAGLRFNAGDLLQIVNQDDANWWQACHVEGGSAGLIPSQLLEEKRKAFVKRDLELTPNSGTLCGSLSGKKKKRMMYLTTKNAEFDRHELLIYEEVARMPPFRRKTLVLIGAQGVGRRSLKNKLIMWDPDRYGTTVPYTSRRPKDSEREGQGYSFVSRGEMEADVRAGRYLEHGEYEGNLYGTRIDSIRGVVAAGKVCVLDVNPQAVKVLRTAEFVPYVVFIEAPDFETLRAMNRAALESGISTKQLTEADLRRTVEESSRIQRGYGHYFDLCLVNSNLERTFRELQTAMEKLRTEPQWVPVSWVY

[7] = molecular target: T7, kelch like family member 40 (human, UniProt Q2TBA0 1-621)
T7 construct: HuProt array protein, full-length recombinant from yeast; also called KLHL40
T7 sequence: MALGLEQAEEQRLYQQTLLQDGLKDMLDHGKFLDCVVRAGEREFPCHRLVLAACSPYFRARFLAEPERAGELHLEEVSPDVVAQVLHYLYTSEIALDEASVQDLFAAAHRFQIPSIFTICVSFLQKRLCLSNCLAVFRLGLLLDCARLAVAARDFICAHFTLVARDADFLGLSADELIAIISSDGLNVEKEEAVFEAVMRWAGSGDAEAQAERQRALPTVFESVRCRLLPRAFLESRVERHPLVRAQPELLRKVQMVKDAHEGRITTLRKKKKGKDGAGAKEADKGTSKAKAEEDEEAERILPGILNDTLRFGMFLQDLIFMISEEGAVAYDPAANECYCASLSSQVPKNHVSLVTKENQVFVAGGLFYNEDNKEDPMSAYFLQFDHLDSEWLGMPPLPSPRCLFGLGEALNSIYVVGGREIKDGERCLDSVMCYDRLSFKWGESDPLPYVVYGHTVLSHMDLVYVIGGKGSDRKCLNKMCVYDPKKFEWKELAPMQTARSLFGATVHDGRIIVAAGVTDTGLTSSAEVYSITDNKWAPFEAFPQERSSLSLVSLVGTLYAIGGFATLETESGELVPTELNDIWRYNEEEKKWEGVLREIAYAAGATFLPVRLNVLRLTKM

[8] = molecular target: T8, butyrophilin subfamily 1 member A1 (human, UniProt Q13410 27-526)
T8 construct: HuProt array protein, full-length recombinant from yeast; also called BTN1A1
T8 sequence: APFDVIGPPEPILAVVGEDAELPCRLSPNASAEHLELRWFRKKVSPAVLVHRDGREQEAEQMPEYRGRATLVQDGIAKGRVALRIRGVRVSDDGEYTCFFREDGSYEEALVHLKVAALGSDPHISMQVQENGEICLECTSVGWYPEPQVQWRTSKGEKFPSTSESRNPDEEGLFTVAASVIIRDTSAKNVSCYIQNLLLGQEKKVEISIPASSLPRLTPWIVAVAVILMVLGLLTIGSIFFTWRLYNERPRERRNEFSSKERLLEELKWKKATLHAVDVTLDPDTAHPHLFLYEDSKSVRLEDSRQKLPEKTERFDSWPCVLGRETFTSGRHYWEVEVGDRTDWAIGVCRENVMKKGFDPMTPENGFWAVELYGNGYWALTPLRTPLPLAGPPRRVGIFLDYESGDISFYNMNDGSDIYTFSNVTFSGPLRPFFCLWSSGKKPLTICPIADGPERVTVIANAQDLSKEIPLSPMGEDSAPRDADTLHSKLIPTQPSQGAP

[9] = molecular target: T9, ganglioside induced differentiation associated protein 1, transcript variant 2 (human, UniProt Q8TB36 69-358)
T9 construct: HuProt array protein, full-length recombinant from yeast; also called GDAP1
T9 sequence: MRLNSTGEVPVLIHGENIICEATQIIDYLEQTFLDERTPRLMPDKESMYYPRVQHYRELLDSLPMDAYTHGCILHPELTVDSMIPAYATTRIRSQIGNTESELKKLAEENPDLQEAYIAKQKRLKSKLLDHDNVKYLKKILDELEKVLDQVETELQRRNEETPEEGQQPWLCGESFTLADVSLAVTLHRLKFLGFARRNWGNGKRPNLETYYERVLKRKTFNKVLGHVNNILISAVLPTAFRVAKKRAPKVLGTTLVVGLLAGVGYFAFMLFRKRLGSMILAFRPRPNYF

[10] = molecular target: T10, zinc finger protein 8 (human, UniProt P17098 1-575)
T10 construct: HuProt array protein, full-length recombinant from yeast; also called ZNF8

[11] = molecular target: T11, SATB homeobox 2, transcript variant 2 (human, UniProt Q9UPW6 1-733)
T11 construct: HuProt array protein, full-length recombinant from yeast; also called SATB2
T11 sequence: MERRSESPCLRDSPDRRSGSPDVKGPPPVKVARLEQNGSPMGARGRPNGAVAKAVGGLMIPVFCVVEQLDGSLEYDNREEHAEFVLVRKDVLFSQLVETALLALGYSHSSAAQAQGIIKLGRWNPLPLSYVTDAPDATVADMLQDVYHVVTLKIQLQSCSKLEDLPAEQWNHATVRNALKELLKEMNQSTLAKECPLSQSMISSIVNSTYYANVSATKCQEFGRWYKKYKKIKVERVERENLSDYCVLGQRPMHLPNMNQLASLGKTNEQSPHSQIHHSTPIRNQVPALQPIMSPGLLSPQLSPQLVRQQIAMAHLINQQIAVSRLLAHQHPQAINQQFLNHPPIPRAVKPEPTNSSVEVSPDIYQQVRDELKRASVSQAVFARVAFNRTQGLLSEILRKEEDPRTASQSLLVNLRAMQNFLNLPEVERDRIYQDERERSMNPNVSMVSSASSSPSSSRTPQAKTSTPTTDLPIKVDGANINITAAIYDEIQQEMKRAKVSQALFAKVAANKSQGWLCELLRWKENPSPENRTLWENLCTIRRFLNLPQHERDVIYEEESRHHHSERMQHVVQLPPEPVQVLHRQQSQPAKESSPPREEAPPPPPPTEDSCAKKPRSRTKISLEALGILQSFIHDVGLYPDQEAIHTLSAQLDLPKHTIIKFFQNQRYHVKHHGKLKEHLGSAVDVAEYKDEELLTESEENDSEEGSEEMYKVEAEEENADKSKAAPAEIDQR

T10 sequence (P17098 whole entry): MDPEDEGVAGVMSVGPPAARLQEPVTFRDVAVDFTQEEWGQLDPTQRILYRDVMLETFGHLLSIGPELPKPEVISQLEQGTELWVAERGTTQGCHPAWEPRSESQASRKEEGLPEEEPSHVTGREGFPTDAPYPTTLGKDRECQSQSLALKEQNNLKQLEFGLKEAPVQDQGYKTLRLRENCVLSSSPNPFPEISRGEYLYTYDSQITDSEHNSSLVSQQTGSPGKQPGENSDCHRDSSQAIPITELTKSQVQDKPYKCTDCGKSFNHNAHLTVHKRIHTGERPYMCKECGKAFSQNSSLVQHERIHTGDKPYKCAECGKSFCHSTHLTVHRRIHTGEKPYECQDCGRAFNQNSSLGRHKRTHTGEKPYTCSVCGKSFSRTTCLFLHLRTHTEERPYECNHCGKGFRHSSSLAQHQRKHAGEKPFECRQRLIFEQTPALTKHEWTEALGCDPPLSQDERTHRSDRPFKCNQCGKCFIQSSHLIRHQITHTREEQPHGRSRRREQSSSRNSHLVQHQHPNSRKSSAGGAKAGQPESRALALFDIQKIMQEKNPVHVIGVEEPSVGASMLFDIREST
T3 sequence (Q9UNI6 whole entry): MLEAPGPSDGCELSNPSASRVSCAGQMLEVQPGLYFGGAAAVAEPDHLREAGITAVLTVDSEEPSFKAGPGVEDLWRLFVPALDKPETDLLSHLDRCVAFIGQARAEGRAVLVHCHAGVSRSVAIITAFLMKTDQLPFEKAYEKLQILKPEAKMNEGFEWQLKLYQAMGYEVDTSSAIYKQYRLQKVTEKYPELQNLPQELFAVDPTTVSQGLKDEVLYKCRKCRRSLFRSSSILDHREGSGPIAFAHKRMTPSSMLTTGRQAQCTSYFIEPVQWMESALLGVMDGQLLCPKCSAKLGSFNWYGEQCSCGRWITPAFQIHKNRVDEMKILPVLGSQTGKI
T4 sequence (P12814 whole entry, change not shown): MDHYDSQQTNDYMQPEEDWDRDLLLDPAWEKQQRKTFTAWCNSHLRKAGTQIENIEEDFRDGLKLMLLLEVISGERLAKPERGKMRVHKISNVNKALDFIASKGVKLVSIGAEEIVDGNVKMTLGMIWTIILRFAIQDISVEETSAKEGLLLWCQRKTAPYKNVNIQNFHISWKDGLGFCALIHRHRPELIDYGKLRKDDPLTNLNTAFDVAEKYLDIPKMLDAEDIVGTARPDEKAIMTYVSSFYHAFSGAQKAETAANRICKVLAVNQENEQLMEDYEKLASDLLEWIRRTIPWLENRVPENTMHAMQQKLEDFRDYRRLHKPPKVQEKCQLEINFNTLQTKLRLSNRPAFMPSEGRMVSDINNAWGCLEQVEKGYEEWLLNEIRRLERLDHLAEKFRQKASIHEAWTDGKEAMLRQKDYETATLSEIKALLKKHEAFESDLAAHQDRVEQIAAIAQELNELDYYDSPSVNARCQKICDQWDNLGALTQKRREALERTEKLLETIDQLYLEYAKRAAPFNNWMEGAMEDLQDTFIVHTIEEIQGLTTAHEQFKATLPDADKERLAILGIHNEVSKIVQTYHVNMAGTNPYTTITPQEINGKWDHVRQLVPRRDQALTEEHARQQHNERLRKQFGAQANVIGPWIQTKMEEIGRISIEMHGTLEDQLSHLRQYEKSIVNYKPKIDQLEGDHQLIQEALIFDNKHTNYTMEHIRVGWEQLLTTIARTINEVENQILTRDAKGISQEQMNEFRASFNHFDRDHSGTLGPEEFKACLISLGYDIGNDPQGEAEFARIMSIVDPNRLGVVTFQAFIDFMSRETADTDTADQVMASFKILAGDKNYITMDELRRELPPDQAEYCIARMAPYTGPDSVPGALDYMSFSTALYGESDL
T1 sequence (P55082 19-362 limits assumed, change not shown): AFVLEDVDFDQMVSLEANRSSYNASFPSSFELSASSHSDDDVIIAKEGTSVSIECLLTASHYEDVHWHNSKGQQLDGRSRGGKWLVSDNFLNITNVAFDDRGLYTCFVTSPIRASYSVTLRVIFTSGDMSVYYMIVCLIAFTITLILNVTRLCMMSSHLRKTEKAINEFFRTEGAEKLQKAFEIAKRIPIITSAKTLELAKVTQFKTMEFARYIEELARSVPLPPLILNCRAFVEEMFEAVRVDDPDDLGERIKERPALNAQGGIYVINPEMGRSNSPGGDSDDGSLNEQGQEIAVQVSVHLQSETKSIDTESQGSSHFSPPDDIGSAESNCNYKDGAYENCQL

B1: TBRE1002 (antibody, V domains shown)
VH: QVQLVESGGGVVQPGGSLRLSCGASGFAFSSNGMHWVRQAPGKGLEWVAFIHYDGRNKHYTDSVKGRFAISVDDSKTTLYLQMSSLKTEDTAVYYCVKDSRVTGQSSGYIFDSWGQGTLVTVSS
VL: ETVMTQSPATLSVSPGDRATLSCRASQNVNFNLAWYQQKPGQAPRLLIYDASTRATGIPARFSGSASGTEFTLTINSLQSEDFAVYYCQQYNNWWTFGQGTKLEIKR
notes: detected with anti-human IgG Fc
binding result [1]: binds

B2: TBRE1006 (antibody, V domains shown)
VH: QVQLVQSGAEVKKPGASVKVSCKASGYIFTSYAIHWVRQAPGQRLEWMGWINAGNGNTKYSQKFQGRVTITRDTSANTAYMELSSLRSEDTAIYYCARDIAVAITNYFGSWGQGTLVTVSS
VL: EIVLTQSPATLSLSPGERATLSCRASQSVGSYLAWYQQKPGQAPRLLIYDASNRATGIPARFSGSGSGTDFTLTISSLEPEDFAVYYCQQGSNWLALTFGGGTKVEIKR
notes: as for B1
binding result [2]: binds

B3: TBRE1007 (antibody, V domains shown)
VH: QVQLQESGPGLVRPSETLSLTCDVSGYLISSGYYWGWVRQPPGKGLEWIGSVYHSGNAYYNPSLKGRVTMSVDTSKNQFSLKLTSVAAEDTAVYYCAREHRSGYQRYWGQGTLVTVSS
VL: IQMTQSPSSLSASVGDRVTITCRASQAIANSLAWYQQRPGKAPKLLIYAASSLESGVPSRFSGSGSGTDYTLTISSLQPEDFATYYCQQYYINPRTFGQGTKVEIKR
notes: as for B1
binding result [3]: binds | binding result [4]: binds

B4: TBRE1009 (antibody, V domains shown)
VH: EVQLVESGGGLVKPGGSLRLSCVGSGFTFSNYSMNWVRQAPGRGLEWVSSISWGSSYINYADSVKGRFTISRDNAKNSLYLQMTSLTAEDTAVYYCACRRIYQGFDPWGQGTLVT
VL: DIQMTQSPSSLSASVGDRVTISCRASHNINTYLNWYQHKPGKAPKIVIYGASSLQSGVPSRFSGSGSGTDFSLTISSLQREDFATYFCQQSFNTVLTFGGGTRVDI
notes: as for B1
binding result [5]: binds

B5: TBRE1012 (antibody, V domains shown)
VH: QVQLQESGPGLVKPTQTLSLTCTVSGGSISSGSYYWNWIRQPAGKGLEWIGNIYTSGNTDYNPSLKSRVTISLDTSKNQVSLNLTSVTAADTAVYYCATTPSSSWYWYFDPWGQGTLVTVSS
VL: DLQMTQSPSSLSASIGDRVTITCRASQSISTYFNWYQQKPGKAPKLLIYAASSLQSGVPSRFSGSGSGTDFTLTITSLQPEDFATYYCQQTYSNPWTFGQGTKVDFKR
notes: as for B1
binding result [6]: binds | binding result [7]: binds

B6: TBRE1013 (antibody, V domains shown)
VH: EVQLVESGGGLVKPGGSLRLSCAGSGFSFSSYSMNWVRQAPGKGLEWVSSISSKSSSKNYIDSVKNRFIISRDNAKNSLYLQMNSLRAEDTAVYYCARDLELIIAAGAPLDHWGQGTLVTVSS
VL: DIQMTQSPSSLSASVGDRVTITCRASQSIKNYVNWYQQKPGEAPNLLIFAASNLQSGVPSRFTGSGSGTDFSLTISSLQPEDFAAYYCQQTYSHPRTFGQGTRVEIKR
notes: as for B1
binding result [8]: binds

B7: TBRE1017 (antibody, V domains shown)
VH: QVQLVQSGAEVKKPGASVKVSCKASGYNFRDYYMHWVRQAPGQGLEWMGWINPNSGGTISAQNFQGRVTMTRDTSISTAYMEVNSLRSDDTAVYYCAVGMVTDGFEIWGQGTLVTVSS
VL: PYELTQPPSVSVSPGQTARITCSGDALPNENAFWYQQKPGQAPVLVIYEDIKRPSGIPERFSGSSSGTTVTLTISGVQAEDEADYYCQSVDITSTWVFGGGTKLTVLG
notes: as for B1
binding result [9]: binds | binding result [10]: binds | binding result [11]: binds

Source: patent publication US20220204643A1 (published 2022)
